Results published in patent US11597752B2, “Peptides and combination of peptides and scaffolds thereof for use in immunotherapy against colorectal carcinoma (CRC) and other cancers” (priority 2015, dated 2023).

biological target: HLA-A*02:01 (Homo sapiens, UniProt P04439, D140Y/D185E/D98H/E176V/E277Q/G131W/G231S/I119V/I121R/I166T/I218V/L300P/L318F/N151K/N90K/P208A/P217A/Q86G/Q94H/R138H/R169H/T345S); test: MHC binding assay (UV-ligand exchange, beta2m ELISA, peptide exchange yield); conditions: binding to HLA-A*02:01, β2m ELISA
Source text: Candidate peptides for T cell based therapies according to the present invention were further tested for their MHC binding capacity (affinity). The individual peptide-MHC complexes were produced by UV-ligand exchange, where a UV-sensitive peptide is cleaved upon UV-irradiation, and exchanged with the peptide of interest as analyzed. Only peptide candidates that can effectively bind and stabilize the peptide-receptive MHC molecules prevent dissociation of the MHC complexes. To determine the yield of the exchange reaction, an ELISA was performed based on the detection of the light chain (β2m) of stabilized MHC complexes. The assay was performed as generally described in Rodenko et al. (Rodenko et al., 2006).
96 well MAXISorp plates (NUNC) were coated over night with 2 ug/ml streptavidin in PBS at room temperature, washed 4× and blocked for 1 h at 37° C. in 2% BSA containing blocking buffer. Refolded HLA-A*02:01/MLA-001 monomers served as standards, covering the range of 15-500 ng/ml. Peptide-MHC monomers of the UV-exchange reaction were diluted 100 fold in blocking buffer. Samples were incubated for 1 h at 37° C., washed four times, incubated with 2 ug/ml HRP conjugated anti-β2m for 1 h at 37° C., washed again and detected with TMB solution that is stopped with […]. Absorption was measured at 450 nm. Candidate peptides that show a high exchange yield (preferably higher than 50%, most preferred higher than 75%) are generally preferred for a generation and production of antibodies or fragments thereof, and/or T cell receptors or fragments thereof, as they show sufficient avidity to the MHC molecules and prevent dissociation of the MHC complexes.

Peptide exchange (MHC class I binding score, peptide exchange yield), “++++” (≥75% = ++++):
88 (KLDIKVETV; listed as Homo sapiens) [compound 88]
93 (SLQELRLLL; listed as Homo sapiens) [compound 93]
95 (AILDAHIEV; listed as Homo sapiens) [compound 95]

Peptide exchange (MHC class I binding score, peptide exchange yield), “++” (≥20% = ++):
40 (ALSNVIHKV; listed as Homo sapiens) [compound 40]
41 (ILDDSFKLL; listed as Homo sapiens) [compound 41]
43 (TLDAAQPRV; listed as Homo sapiens) [compound 43]
48 (FLDASDPAL; listed as Homo sapiens) [compound 48]
51 (QVWEIQHTV; listed as Homo sapiens) [compound 51]
52 (ALDSSNSMQTI; listed as Homo sapiens) [compound 52]
56 (VLFTDEGVPKFL; listed as Homo sapiens) [compound 56]
58 (AMADKMDMSL; listed as Homo sapiens) [compound 58]
60 (VLDEDEPRFL; listed as Homo sapiens) [compound 60]
62 (YLAPENGYL; listed as Homo sapiens) [compound 62]
63 (KLFSILSTV; listed as Homo sapiens) [compound 63]
66 (GLDDGPDFL; listed as Homo sapiens) [compound 66]
69 (GMLNEAEGKAIKL; listed as Homo sapiens) [compound 69]
75 (EMIENIQSV; listed as Homo sapiens) [compound 75]
77 (SLLKRDFGA; listed as Homo sapiens) [compound 77]
78 (ALDPELLLL; listed as Homo sapiens) [compound 78]
79 (SLAADQLLKL; listed as Homo sapiens) [compound 79]
80 (QVDEVVDIMRV; listed as Homo sapiens) [compound 80]
82 (QLYEEPDTKL; listed as Homo sapiens) [compound 82]
85 (ILHDINSDGVL; listed as Homo sapiens) [compound 85]
86 (KVFPGKISV; listed as Homo sapiens) [compound 86]
96 (KLYSRLVYV; listed as Homo sapiens) [compound 96]
97 (ALWWGVVTV; listed as Homo sapiens) [compound 97]
98 (AMNGKSFSV; listed as Homo sapiens) [compound 98]

Peptide exchange (MHC class I binding score, peptide exchange yield), “+++” (≥50 = +++):
36 (GLLESPSIFNFTA; listed as Homo sapiens) [compound 36]
44 (SLESKLTSV; listed as Homo sapiens) [compound 44]
45 (ALAELLHGA; listed as Homo sapiens) [compound 45]
46 (GLDDRYSLV; listed as Homo sapiens) [compound 46]
50 (TLMAEMHVV; listed as Homo sapiens) [compound 50]
53 (FLLGSEIKL; listed as Homo sapiens) [compound 53]
54 (ALLNGEYLLAA; listed as Homo sapiens) [compound 54]
57 (NLLEKENYL; listed as Homo sapiens) [compound 57]
61 (KLLKLFQGV; listed as Homo sapiens) [compound 61]
67 (SLNDLEKDVMLL; listed as Homo sapiens) [compound 67]
68 (SILQFVHMV; listed as Homo sapiens) [compound 68]
70 (MISELEVRL; listed as Homo sapiens) [compound 70]
71 (RLWTEIPTAI; listed as Homo sapiens) [compound 71]
72 (YLLDYPNNLL; listed as Homo sapiens) [compound 72]
73 (YLFDIAVSM; listed as Homo sapiens) [compound 73]
74 (YLMGFLHAV; listed as Homo sapiens) [compound 74]
76 (YLIGEKQHYL; listed as Homo sapiens) [compound 76]
81 (ALLSQQTHL; listed as Homo sapiens) [compound 81]
83 (LTIEDGIFEV; listed as Homo sapiens) [compound 83]
84 (SMVEDITGLRL; listed as Homo sapiens) [compound 84]
87 (LLFDAPDLRL; listed as Homo sapiens) [compound 87]
89 (SLIEYEFRV; listed as Homo sapiens) [compound 89]
90 (GLLKPGLNVVL; listed as Homo sapiens) [compound 90]
91 (TVDVATPSV; listed as Homo sapiens) [compound 91]
92 (WIDDTSAFV; listed as Homo sapiens) [compound 92]
94 (KSMDIVLTV; listed as Homo sapiens) [compound 94]
99 (KLLEVDLDTV; listed as Homo sapiens) [compound 99]
100 (SLDDFLATA; listed as Homo sapiens) [compound 100]
101 (GLSEGHTFQV; listed as Homo sapiens) [compound 101]
102 (KILVSLIEV; listed as Homo sapiens) [compound 102]
